{"source": "paper PMC6921966", "about": "(Frontiers in Immunology, 2019)", "binders": {"B1": {"name": "FcγRIV-VHH-7m (VHH)", "VHH": "QVQLQESGGGLVQAGGSLRLSCAASGFTVDDYSIGWFRQAPGKEREGVSCISIRDGSTGYTDPVKGRFTISSDNAKNMVYLQMNMLKPEDTAVYYCAGDIYCSNDDVGVGPYDYWGQGTQVTVSS", "notes": "also called FcgRIV-VHH-7m; FcγRIV-specific VHH"}, "B2": {"name": "M2e-VHH-23m (VHH)", "VHH": "QVQLQESGGGLVQTGGSLRLSCAFSGFTSDDYVIGWFRQAPGKGRQGVSCIRLSGGGTIYADSAKGRFTVSADNAKKTVYLQMTRLKPEDTAVYYCGAERYNVEGCGYDVAYWGKGTQVTVSS", "notes": "also called M2e-VHH-m23; M1e- VHH-23m; not shown: His6, C-terminal, kept"}, "B3": {"name": "M2e-VHH-66m (VHH)", "VHH": "B2 VHH with T28I, V70I, R85S, Y101H", "notes": "not shown: His6, C-terminal, kept"}, "B4": {"name": "M2e-VHH-10m (VHH)", "VHH": "QVQLQESGGGLVQAGESLSLSCAASGLAFDDYVIGWYRQAPGKGREGLSCMRLSNGAIMYGPSVKGRFTMSSDNAKSTFFLQMTRLIPEDTAVYYCGAEKHDVNGCGFDVAYWGQGTQVTVSS", "notes": "as for B3"}}, "key": {"[1]": {"target": "T1, mouse FcγRIV on transfected HEK293T cells (Mus musculus, UniProt A0A0B4J1G0)", "T1 construct": "also called FcγRIV transfected cells", "T1 sequence (A0A0B4J1G0 21-249)": "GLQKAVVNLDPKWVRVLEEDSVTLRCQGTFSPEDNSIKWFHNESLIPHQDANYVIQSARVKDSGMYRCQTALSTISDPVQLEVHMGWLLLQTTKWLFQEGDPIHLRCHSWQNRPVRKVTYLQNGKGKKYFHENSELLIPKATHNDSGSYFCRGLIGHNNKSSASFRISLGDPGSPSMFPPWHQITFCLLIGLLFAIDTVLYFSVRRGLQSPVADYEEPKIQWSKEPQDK", "experiment": "flow cytometry on cells", "settings": "one partner purified"}, "human H3N2 M2e peptide [2]": {"target": "T2, human H3N2 M2e peptide (Influenza A virus, human H3N2 consensus)", "T2 chain": "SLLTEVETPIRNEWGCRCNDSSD", "experiment": "ITC; […] (300 μM) […] (30 μM) in PBS; […]", "settings": "both partners purified"}, "[3]": {"target": "M2 of A/Puerto Rico/8/1934 (H1N1) on infected cells (Influenza A virus A/Puerto Rico/8/1934 …, UniProt P06821)", "sequence (P06821 whole entry)": "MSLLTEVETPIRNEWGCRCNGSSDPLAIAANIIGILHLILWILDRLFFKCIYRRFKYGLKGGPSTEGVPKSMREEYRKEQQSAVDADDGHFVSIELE", "experiment": "flow cytometry on cells", "settings": "one partner purified"}, "[4]": {"target": "M2 of A/Swine/Ontario/42729A/2001 (H3N3) on infected cells (Influenza A virus …, UniProt Q64HP7, strain)", "experiment": "flow cytometry on cells", "settings": "one partner purified"}, "[5]": {"target": "M2 of A/Udorn/307/1972 (H3N2) on infected cells (influenza A virus A/Udorn/307/1972 …, UniProt P0DOF5)", "sequence (P0DOF5 whole entry)": "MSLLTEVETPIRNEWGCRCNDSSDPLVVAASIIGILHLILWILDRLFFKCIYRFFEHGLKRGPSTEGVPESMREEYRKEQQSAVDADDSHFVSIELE", "experiment": "flow cytometry on cells", "settings": "one partner purified"}, "human H3N2 M2e peptide [6]": {"target": "T2, human H3N2 M2e peptide", "experiment": "ELISA", "settings": "both partners purified"}}, "note": "Substitutions are numbered along the chain they refer to."}
{"binder": "B1", "values": [{"measurement": "binding result", "setting": "[1]", "result": "binds"}]}
{"binder": "B2", "values": [{"measurement": "Kd", "setting": "human H3N2 M2e peptide [2]", "result": 730, "unit": "nM"}, {"measurement": "stoichiometry N", "setting": "human H3N2 M2e peptide [2]", "result": 1}, {"measurement": "Kd", "setting": "[3]", "result": 13.6, "unit": "nM"}, {"measurement": "binding result", "setting": "[4]", "result": "no binding (tested: 20 μg/ml)"}, {"measurement": "binding result", "setting": "[5]", "result": "binds"}]}
{"binder": "B3", "values": [{"measurement": "binding result", "setting": "human H3N2 M2e peptide [6]", "result": "binds"}]}
{"binder": "B4", "values": [{"measurement": "binding result", "setting": "human H3N2 M2e peptide [6]", "result": "binds"}]}
